Assay results reported in patent publication US20260226191A1 (SHANDONG SIMCERE BIOPHARMACEUTICAL, published 2026).

T1: Cyno MUC17 ECD3577-mFc (mFc-tagged cynomolgus monkey MUC17 protein extracellular region fusion protein) (cynomolgus monkey)
T1 construct: also called monkey MUC17-mFc protein; Monkey MUC17-ECD3577-mFc protein
T1 chain: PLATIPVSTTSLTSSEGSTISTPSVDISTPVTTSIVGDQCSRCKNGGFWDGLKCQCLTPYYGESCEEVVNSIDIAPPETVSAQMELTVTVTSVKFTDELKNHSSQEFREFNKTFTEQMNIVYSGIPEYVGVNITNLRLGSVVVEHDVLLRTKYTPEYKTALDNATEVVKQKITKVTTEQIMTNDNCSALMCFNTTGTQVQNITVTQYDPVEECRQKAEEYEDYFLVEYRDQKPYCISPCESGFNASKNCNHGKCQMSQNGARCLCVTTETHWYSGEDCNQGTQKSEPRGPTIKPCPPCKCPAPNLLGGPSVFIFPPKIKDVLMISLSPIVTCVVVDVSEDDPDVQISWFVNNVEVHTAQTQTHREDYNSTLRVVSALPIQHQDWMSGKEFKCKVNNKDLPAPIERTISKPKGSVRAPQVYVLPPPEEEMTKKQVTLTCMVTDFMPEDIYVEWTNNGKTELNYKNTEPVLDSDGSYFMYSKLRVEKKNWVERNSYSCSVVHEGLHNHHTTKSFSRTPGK

B1: Bis 57 (bispecific antibody, human IgG1, kappa)
heavy: EVQLVESGGGVVQPGRSLRLSCAASGFTFTDYYMSWVRQAPGKGLEWVAMSRNKAKGHTIEYSSSVKGRFTISRDNSKNTLYLQMNSLRAEDTAVYYCARDTYESYDGYFDVWGQGTTVTVSSASTKGPSVFPLAPSSKSTSGGTAALGCLVKDYFPEPVTVSWNSGALTSGVHTFPAVLQSSGLYSLSSVVTVPSSSLGTQTYICNVNHKPSNTKVDKKVEPKSCDKTHTCPPCPAPEAAGAPSVFLFPPKPKDTLMISRTPEVTCVVVDVSHEDPEVKFNWYVDGVEVHNAKTKPREEQYNSTYRVVSVLTVLHQDWLNGKEYKCKVSNKALPAPIEKTISKAKGQPREPQVYTLPPSREEMTKNQVSLWCLVKGFYPSDIAVEWESNGQPENNYKTTPPVLDSDGSFFLYSKLTVDKSRWQQGNVFSCSVMHEALHNHYTQKSLSLSPG
light: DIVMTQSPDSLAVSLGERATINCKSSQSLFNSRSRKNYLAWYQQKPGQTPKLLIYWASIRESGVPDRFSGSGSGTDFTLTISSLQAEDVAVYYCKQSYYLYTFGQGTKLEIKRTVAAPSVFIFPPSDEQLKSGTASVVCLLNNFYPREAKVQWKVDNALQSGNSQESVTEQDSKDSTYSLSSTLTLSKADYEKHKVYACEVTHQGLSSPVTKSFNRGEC
chain: EVQLVESGGGLVQPGRSLRLSCAASGDITRRCMGWFRQAPGKEREGVAGISEDGITIYADSVKGRFTISKDNAKNSLYLQMNSLRAEDTALYSCAASILNRVGCRQLSYEYIYRGQGTMVTVSSGGGDKTHTCPPCPAPEAAGAPSVFLFPPKPKDTLMISRTPEVTCVVVDVSHEDPEVKFNWYVDGVEVHNAKTKPREEQYNSTYRVVSVLTVLHQDWLNGKEYKCKVSNKALPAPIEKTISKAKGQPREPQVYTLPPSREEMTKNQVSLSCAVKGFYPSDIAVEWESNGQPENNYKTTPPVLDSDGSFFLVSKLTVDKSRWQQGNVFSCSVMHEALHNHYTQKSLSLSPG
notes: Three-chain asymmetric MUC17xCD3 bispecific
B2: Bis 58 (bispecific antibody, human IgG1, kappa)
heavy: B1 heavy
light: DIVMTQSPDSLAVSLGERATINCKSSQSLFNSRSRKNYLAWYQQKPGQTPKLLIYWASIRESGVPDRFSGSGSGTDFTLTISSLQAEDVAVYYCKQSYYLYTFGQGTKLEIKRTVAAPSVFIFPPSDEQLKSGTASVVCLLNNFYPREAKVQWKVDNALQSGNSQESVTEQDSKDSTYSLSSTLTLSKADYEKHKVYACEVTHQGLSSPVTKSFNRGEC
chain: EVQLVESGGGLVQPGGSLRLSCAASGFPSSRGTMAWFRQAPGKEREGVAFINSDGRTSYAESVKGRFTISRDNAKNSLYLQMNSLRAEDTAVYYCAASLLYLMTVNAAAYPYWGQGTMVTVSSGGGDKTHTCPPCPAPEAAGAPSVFLFPPKPKDTLMISRTPEVTCVVVDVSHEDPEVKFNWYVDGVEVHNAKTKPREEQYNSTYRVVSVLTVLHQDWLNGKEYKCKVSNKALPAPIEKTISKAKGQPREPQVYTLPPSREEMTKNQVSLSCAVKGFYPSDIAVEWESNGQPENNYKTTPPVLDSDGSFFLVSKLTVDKSRWQQGNVFSCSVMHEALHNHYTQKSLSLSPG
notes: as for B1
B3: Bis 59 (bispecific antibody, human IgG1, kappa)
heavy: B1 heavy
light: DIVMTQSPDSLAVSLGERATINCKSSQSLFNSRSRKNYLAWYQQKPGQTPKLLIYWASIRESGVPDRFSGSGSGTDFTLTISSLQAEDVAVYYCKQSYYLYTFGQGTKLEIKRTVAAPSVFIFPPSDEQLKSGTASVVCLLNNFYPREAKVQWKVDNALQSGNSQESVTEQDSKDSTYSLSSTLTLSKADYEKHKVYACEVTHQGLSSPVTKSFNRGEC
chain: EVQLVESGGGVVQPGGSLRLSCAASGDTFSRGSWGWFRQAPGKEREAVALISSDGWTFYADSVKGRFTISQDNSKNTLYLQMNSLRAEDTAVYYCAASVLVLRTLNPKAWHHWGQGTMVTVSSGGGDKTHTCPPCPAPEAAGAPSVFLFPPKPKDTLMISRTPEVTCVVVDVSHEDPEVKFNWYVDGVEVHNAKTKPREEQYNSTYRVVSVLTVLHQDWLNGKEYKCKVSNKALPAPIEKTISKAKGQPREPQVYTLPPSREEMTKNQVSLSCAVKGFYPSDIAVEWESNGQPENNYKTTPPVLDSDGSFFLVSKLTVDKSRWQQGNVFSCSVMHEALHNHYTQKSLSLSPG
notes: as for B1
B4: Bis 92 (bispecific antibody, human IgG1, kappa)
heavy: B1 heavy
light: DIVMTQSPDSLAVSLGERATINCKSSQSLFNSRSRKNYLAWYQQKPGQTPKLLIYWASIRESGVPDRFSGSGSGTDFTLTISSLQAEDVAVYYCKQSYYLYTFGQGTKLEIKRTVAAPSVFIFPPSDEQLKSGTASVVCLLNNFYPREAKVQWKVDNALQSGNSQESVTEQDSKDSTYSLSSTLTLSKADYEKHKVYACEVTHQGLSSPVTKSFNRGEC
chain: EVQLVESGGGVVQPGGSLRLSCAASGYTSNRYSMAWFRQAPGKEREVVAFIWTDGGRTYYADSVKGRFTISRDNSKNTLYLQMNSLRAEDTAVYYCAASSLLLQTINPRAWPYWGQGTMVTVSSGGGDKTHTCPPCPAPEAAGAPSVFLFPPKPKDTLMISRTPEVTCVVVDVSHEDPEVKFNWYVDGVEVHNAKTKPREEQYNSTYRVVSVLTVLHQDWLNGKEYKCKVSNKALPAPIEKTISKAKGQPREPQVYTLPPSREEMTKNQVSLSCAVKGFYPSDIAVEWESNGQPENNYKTTPPVLDSDGSFFLVSKLTVDKSRWQQGNVFSCSVMHEALHNHYTQKSLSLSPG
notes: as for B1
B5: antiFITCx CD3 negative control (bispecific antibody, human IgG1, kappa)
heavy: B1 heavy
light: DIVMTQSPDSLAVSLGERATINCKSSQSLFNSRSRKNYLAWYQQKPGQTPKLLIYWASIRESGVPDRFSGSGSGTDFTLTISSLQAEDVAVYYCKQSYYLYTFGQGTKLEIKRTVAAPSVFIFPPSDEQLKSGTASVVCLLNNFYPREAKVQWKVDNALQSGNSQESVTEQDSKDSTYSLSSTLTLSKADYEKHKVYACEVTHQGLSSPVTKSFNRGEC
chain: EVKLDETGGGLVQPGRPMKLSCVASGFTFSDYWMNWVRQSPEKGLEWVAQIRNKPYNYETYYSDSVKGRFTISRDDSKSSVYLQMNNLRVEDMGIYYCTGSYYGMDYWGQGTSVTVSSGGGGSGGGGSGGGGSDVVMTQTPLSLPVSLGDQASISCRSSQSLVHSNGNTYLRWYLQKPGQSPKVLIYKVSNRFSGVPDRFSGSGSGTDFTLKISRVEAEDLGVYFCSQSTHVPWTFGGGTKLEIKGGGDKTHTCPPCPAPEAAGAPSVFLFPPKPKDTLMISRTPEVTCVVVDVSHEDPEVKFNWYVDGVEVHNAKTKPREEQYNSTYRVVSVLTVLHQDWLNGKEYKCKVSNKALPAPIEKTISKAKGQPREPQVYTLPPSREEMTKNQVSLSCAVKGFYPSDIAVEWESNGQPENNYKTTPPVLDSDGSFFLVSKLTVDKSRWQQGNVFSCSVMHEALHNHYTQKSLSLSPG
notes: Negative control with the same anti-CD3 arm and an anti-FITC scFv in place of the MUC17 VHH

What follows are binders tested against T2, human MUC17 on endogenous tumor cells (NUGC4, SNU16, ASPC1) (human) (assay: cell-based or functional assay).

Row | Binder | PBMC-mediated in vitro tumor cell killing EC50, ASPC-1 [nM] | PBMC-mediated in vitro tumor cell killing EC50, NUGC4 [nM] | PBMC-mediated in vitro tumor cell killing EC50, SNU16 [nM]
1 | B1 | 0.011 | 0.024 | 0.017
2 | B2 | 0.0194 | 0.0271 | –
3 | B3 | 0.0073 | 0.0166 | 0.0126
4 | B4 | 0.00739 | 0.00779 | –

Each binder was assayed against T3, human cell surface CD3 (Jurkat cells, human PBMCs) (human, UniProt P07766 23-207) (assay: FACS on naive human PBMCs (CD3), MFI).
T3 construct: whole, on cells; CD3 is a multi-chain complex on the cell
T3 sequence (P07766 23-207): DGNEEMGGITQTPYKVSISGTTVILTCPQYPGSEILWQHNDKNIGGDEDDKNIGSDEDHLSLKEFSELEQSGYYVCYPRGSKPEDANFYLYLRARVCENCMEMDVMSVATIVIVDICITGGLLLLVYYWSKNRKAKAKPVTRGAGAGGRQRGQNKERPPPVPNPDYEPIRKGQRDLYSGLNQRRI

Row | EC50 (read off the curve) [nM] | Binder
5 | ~50 | B2

Each binder was assayed against T4, human MUC17 fragment on FlpinCHO-huMUC17-D1 cells (human) (assay: FACS on FlpinCHO-huMUC17-D1 cells, MFI).
T4 construct: On cells; also called cells overexpressing human MUC17

Row | EC50 (read off the curve) [nM] | Binder
6 | ~2 | B1
7 | ~1 | B2
8 | ~1 | B3
9 | ~1 | B4

These binders were tested against T5, monkey MUC17 on FlpinCHO-cynoMUC17-D1 cells (monkey) (assay: FACS on FlpinCHO-cynoMUC17-D1 cells, MFI).
T5 construct: On cells; also called recombinant cells overexpressing monkey MUC17

Row | EC50 (read off the curve) [nM] | Binder
10 | ~8 | B1
11 | ~8 | B2
12 | ~20 | B4

The binders below were run against T6, Human CD3e-His protein (Sino Biological, CAT #10977-H08H) (human, UniProt P07766 23-126) (assay: ELISA, human CD3e-His coated on the plate, OD450).
T6 construct: Bought reagent; also called human CD3e protein
T6 sequence (P07766 23-126 limits assumed): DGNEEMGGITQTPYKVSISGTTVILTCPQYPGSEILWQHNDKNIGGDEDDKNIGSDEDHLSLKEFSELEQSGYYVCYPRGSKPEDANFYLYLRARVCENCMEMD

Row | binding result | Binder
13 | binds | B1
14 | binds | B3
15 | binds | B5
16 | binds | B4

The binders below were run against T7, Human MUC17 ECD4131-his (His-tagged human MUC17 protein extracellular region fusion protein) (human, UniProt Q685J3 4131-4393) (assay: ELISA, human MUC17-his coated on the plate, OD450).
T7 construct: also called human MUC17-his protein; Human MUC17-ECD(4131-4393)-His protein

Row | EC50 (read off the curve) [nM] | binding result | Binder
17 | ~0.05 | – | B1
18 | ~0.05 | – | B2
19 | ~0.05 | – | B3
20 | – | no binding | B5
21 | ~0.05 | – | B4

The binders below were run against T2, human MUC17 on endogenous tumor cells … (assay: FACS on NUGC4 cells (endogenous human MUC17), MFI).

Row | EC50 (read off the curve) [nM] | Binder
22 | ~1 | B1
23 | ~0.5 | B2
24 | ~0.6 | B3
25 | ~0.2 | B4

These binders were tested against T2, human MUC17 on endogenous tumor cells … (assay: FACS on SNU16 cells (endogenous human MUC17), MFI).

Row | EC50 (read off the curve) [nM] | Binder
26 | ~0.3 | B1
27 | ~0.2 | B2
28 | ~0.2 | B3
29 | ~0.08 | B4

What follows are binders tested against T2, human MUC17 on endogenous tumor cells … (assay: FACS on AspC-1 cells (endogenous human MUC17), MFI).

Row | EC50 (read off the curve) [nM] | Binder
30 | ~0.3 | B1
31 | ~0.2 | B2
32 | ~0.2 | B3
33 | ~0.08 | B4

Biological target: T1, Cyno MUC17 ECD3577-mFc (mFc-tagged …)
Assay: ELISA, cynomolgus MUC17-mFc coated on the plate, OD450

Row | EC50 (read off the curve) [nM] | Binder
34 | ~0.04 | B1
35 | ~0.07 | B2
36 | ~0.2 | B3
37 | ~0.09 | B4

Each binder was assayed against T7, Human MUC17 ECD4131-his (His-tagged …) (assay: SPR (Biacore 8K), antibody captured on Protein A, antigen injected, 25 C, 1:1 model).

Row | Kd [nM] | koff [s⁻¹] | kon [M⁻¹ s⁻¹] | Binder
38 | 0.289 | 4.86e-05 | 168000 | B1
39 | 0.378 | 0.000138 | 364000 | B2
40 | 0.219 | 9.74e-05 | 445000 | B3
41 | 0.136 | 7.81e-05 | 572000 | B4

Biological target: T1, Cyno MUC17 ECD3577-mFc (mFc-tagged …)
Assay: as above

Row | Kd [nM] | koff [s⁻¹] | kon [M⁻¹ s⁻¹] | Binder
42 | 4.71 | 0.00016 | 33900 | B1
43 | 7.11 | 0.00031 | 43600 | B2
44 | 25.6 | 0.000866 | 33900 | B3
45 | 13.4 | 0.000511 | 38100 | B4
